B1: shRNA-GFP (ssRNA)
RNA: GGCAUCAAGGUGAACUUCAAGAUCCAGCAUAGGGAUCUUGAAGUUCACCUUGAUGCCAG
B2: shRNA-Box C/D-GFP (ssRNA)
RNA: GGCAUCAAGGUGAACUUCAGCUGACCCGAAAGGGCGUGAUGCUGAAGUUCACCUUGAUGCCAG
B3: shRNA-Box C/D-mut-GFP (ssRNA)
RNA: GGCAUCAAGGUGAACUUCAGCUGCCCGAAAGGGCGUCAUGCUGAAGUUCACCUUGAUGCCAG

What was measured:
[1] = target: T1, L7Ae (UniProt O29494 SEQ:21-139); experiment: EMSA; 40 nM RNA, 80-640 nM L7Ae; sequence-specific binding stated for Box C/D only; settings: tags: His6 (pET-28b+, Ni-NTA); hairpin (shRNA)
T1 sequence (O29494 whole entry): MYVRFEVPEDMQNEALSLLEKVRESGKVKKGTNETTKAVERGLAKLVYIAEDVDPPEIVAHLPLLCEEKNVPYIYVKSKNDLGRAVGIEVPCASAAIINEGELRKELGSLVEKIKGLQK
Procedure: (§1) The binding between each shRNA and the protein was confirmed as follows: after dilution with a dialysis buffer to bring the protein concentration to concentrations 25 times the final concentrations of 80 to 640 nM, 2 μL of the protein solution with each concentration, 2 μL of 1 μM shRNA-Box C/D-GFP, 6 μL of ultrapure water, and 40 μL of Opti-MEM I (trademark, Invitrogen Corp.) were mixed and left standing at room temperature for 30 minutes to bind shRNA (40 nM) to L7Ae (80 nM, 160 nM, 320 nM, or 640 nM). shRNA-GFP and shRNA-Box C/D mut-GFP were bound to L7Ae in the same way. To each solution, 13 μL of 5× dye solution (0.25% BPB, 30% glycerol) was added and mixed, and 15 μL of this mixed solution was layered on a nondenaturing 15% polyacrylamide (1/30 bisacrylamide) gel and electrophoresed at 250 V at 4° C. for 50 minutes. After the electrophoresis, the gel was stained with SYBR Green for 15 minutes, and bands were confirmed using FLA-7000 (FUJI FILM).

[2] = target: T1, L7Ae; experiment: EMSA; 40 nM RNA, 80-640 nM L7Ae, Opti-MEM, room temperature; settings: tags: His6 (pET-28b+, Ni-NTA); hairpin (shRNA) with Box C/D kink-turn loop
Procedure: as §1

Binder	binding result [1]	binding result [2]
B1	no binding	–
B2	–	binds
B3	no binding	–

Reference: US20110263026, “Construction of Protein-Responsive shRNA/RNAi Control System Using RNP Motif” (JAPAN SCIENCE AND TECHNOLOGY AGENCY, published 2011)
